Laboratory results from the supplement of paper PMC9170038.

Tested on: MS2 coat protein
Test: apparent KD of MS2 coat protein; designed switch direction (-1 OFF switch, 1 ON switch): -1; higher = weaker reporter binding
How it was run: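 Normalised cluster fluorescence was curve-fitted, and each design's median over clusters is its apparent KD. Before this, SNAP-549-labelled MS2 coat protein was titrated from 0.7 or 1.5 nM, doubling to 3 µM, over RNA switches transcribed on Illumina chips by stalled E. coli RNA polymerase. Titrations had no input, 200 uM small-molecule ligand, or an oligonucleotide input, and steps lasted 0.8–1.5 h (lowest) to 10–20 min (highest).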

[1] = input ligand: microRNA oligo, concentration not stated
[2] = Eterna round: R95, input ligand: microRNA oligo, concentration not stated

Row | Sequence | apparent KD of MS2 coat protein (input ligand: FMN 200 uM) [µM] | apparent KD of MS2 coat protein [1] [µM] | apparent KD of MS2 coat protein (input ligand: none) [µM] | apparent KD of MS2 coat protein [2] [µM]
1 | CUAAGUUGGUAAGGAUAUCCUACAUUAUUCUGACCCGUGCAAGCUACAUGAGGAUCACCCAUGUGGGAGAAGGUGCGUUAAUGU [Design 5] (Eterna round: R96, puzzle: Exclusion NG 2) | 0.0163 | 0.0138 | 0.0203 | –
2 | AUUUACGGAGGAUAUACUUGAGGAUCACCCAAGUGGAGUCCCGUUUGGGCGGUAAAUAGUAGAAGGCCGUCCCA [jl-ex3-4.45 ViennaUCT mod] (Eterna round: R97, puzzle: Exclusion 3) | 0.0202 | – | 0.0133 | –
3 | UUUUAGUCAGGAUAUACAUGAGGAUCACCCAUGUAAAAUUUUAAUUUAAUUUUAAGGUGUAGAAGGGACAAUCC [Ex3 #12] (Eterna round: R97, puzzle: Exclusion 3) | 0.0431 | – | 0.0389 | –
4 | GAGGGAGGAGGAUAUUCCUUCGAGAACAUGAGGAUCACCCAUGUGUUAUAUCGAAAGCCCGAAGAAGGCCUCGCUA [Eternabot (Original) Solution 50] (Eterna round: R97, puzzle: Exclusion 5) | 0.0175 | – | 0.0202 | –
5 | CAGUACUGAGGAUAUACAUGAGGAUCACCCAUGUCUUAAAAGUAGGAUACUACUAUUAGUAGAAGGCAGUACUG [Fiskers Ex 3 828 mod 24] (puzzle: Exclusion 3) | – | – | – | 0.0126
6 | CAGUACUGAGGAUAUACAUGAGGAUCACCCAUGUGUUCCAGCUAGGAGACUAGCAUAUGUAGAAGGCAGUACUG [jl-ex3-4.03 salish99 mod] (Eterna round: R97, puzzle: Exclusion 3) | 0.338 | – | 0.326 | –
7 | AUAAAACAUGAGGAUCACCCAUGUGAGGAUAUACGACUCCAACCUAACAGCUUGGACCGUAGAAGGCACAAGGG [Exclusion 1 (MOD3.2 Esqu)] (Eterna round: R97, puzzle: Exclusion 1) | 0.137 | – | 0.159 | –
8 | GUUAACGAUCAGGAUAUAUCAAAUCAUAGCUUGAUAGAAGGGAUCACAUGAGGAUCACCCAUGUGAUCUUCUUU [jl-ex6-4.14 ViennaUCT mod] (Eterna round: R97, puzzle: Exclusion 6) | 0.0153 | – | 0.0117 | –
9 | GCUGGACAAGGAUAUGCAAUCGUGCUUCGGCACGUAAGGUCACAUGAGGAUCACCCAUGUAGAAGGUGUCCAGC [E2/4-C2] (Eterna round: R97, puzzle: Exclusion 2) | 0.0313 | – | 0.0161 | –
10 | UAUUAGCAAGCGAGAUCCCACAUGAGGAUCACCCAUGUGCUCGUCUUAUAAAGUACUGUGACGAAAGUCACGGUACA [Sensor 3, v1 - 91 v3] (Eterna round: R97, puzzle: Sensor, turn-off variant 1) | 0.0143 | – | 0.0128 | –
11 | UCUUACUGAGGAUAUACAUAGAUUUACAUGAGGAUCACCCAUGUUCCUCUAUGUAUAAAUGUAGAAGGCAGAAGAA [Mat - Exclusion 5 - JL Mod - D53] (Eterna round: R97, puzzle: Exclusion 5) | 0.0826 | – | 0.0178 | –
12 | UAGAUACAUGAGGAUCACCCAUGUGAGGAUAUGAGAAUUAUAUUAAAUGAAUGUAGUAUCAGAAGGCACAAAGG [JR_Ex1_Sub049] (Eterna round: R97, puzzle: Exclusion 1) | 0.197 | – | 0.13 | –
13 | AAAACAAACGAAGGAUAUGCAACCCGGCGGUACGCAGAAGGUCGAAAGAUUUUCAUUCUACAUGAGGAUCACCCAUGUACGGGC [Leange] (Eterna round: R96, puzzle: Exclusion NG 1) | 0.0485 | 0.0397 | 0.0523 | –
14 | AUCAUGUGAGGAUAUGUGAUCAACCUUCUGUAUAGAUGAUUACAGAAGGCACAUGAGGAUCACCCAUGUAGAUC [Ex4 - 3 - 21] (puzzle: Exclusion 4) | – | – | – | 0.0557
